Measurements reported in patent US20230192860A1 (Bristol-Myers Squibb, published 2023).

B1: P1-077875 (P1-068748 H31S H32Y) (antibody, V domains shown)
VH: QVQLVESGGGVVQPGRSLRLSCAASGFTFSSYAMHWVRQAPGKGLEWVAIIWYDGSNDDYADSVKGRFTISRDNSKNTLYLQMNSLRAEDTAVYYCARDSGFYDSYYFDYWGQGTLVTVSS
VL: EIVLTQSPATLSLSPGERATLSCRASQSVSSSYLAWYQQKPGQAPRLLIYDASNRATGIPARFSGSGSGTDFTLTISSLEPEDFATYYCQQYNSYPYTFGQGTKLEIK
B2: P1-077865 (P1-068748 H31S) (antibody, V domains shown)
VH: QVQLVESGGGVVQPGRSLRLSCAASGFTFSSHAMHWVRQAPGKGLEWVAIIWYDGSNDDYADSVKGRFTISRDNSKNTLYLQMNSLRAEDTAVYYCARDSGFYDSYYFDYWGQGTLVTVSS
VL: EIVLTQSPATLSLSPGERATLSCRASQSVSSSYLAWYQQKPGQAPRLLIYDASNRATGIPARFSGSGSGTDFTLTISSLEPEDFATYYCQQYNSYPYTFGQGTKLEIK
B3: P1-077867 (P1-068748 H32Y) (antibody, V domains shown)
VH: QVQLVESGGGVVQPGRSLRLSCAASGFTFSHYAMHWVRQAPGKGLEWVAIIWYDGSNDDYADSVKGRFTISRDNSKNTLYLQMNSLRAEDTAVYYCARDSGFYDSYYFDYWGQGTLVTVSS
VL: EIVLTQSPATLSLSPGERATLSCRASQSVSSSYLAWYQQKPGQAPRLLIYDASNRATGIPARFSGSGSGTDFTLTISSLEPEDFATYYCQQYNSYPYTFGQGTKLEIK
B4: P1-077869 (P1-068748 D57K) (antibody, V domains shown)
VH: QVQLVESGGGVVQPGRSLRLSCAASGFTFSHHAMHWVRQAPGKGLEWVAIIWYDGSNKDYADSVKGRFTISRDNSKNTLYLQMNSLRAEDTAVYYCARDSGFYDSYYFDYWGQGTLVTVSS
VL: EIVLTQSPATLSLSPGERATLSCRASQSVSSSYLAWYQQKPGQAPRLLIYDASNRATGIPARFSGSGSGTDFTLTISSLEPEDFATYYCQQYNSYPYTFGQGTKLEIK
B5: P1-077877 (P1-068748 H32Y D57K) (antibody, V domains shown)
VH: QVQLVESGGGVVQPGRSLRLSCAASGFTFSHYAMHWVRQAPGKGLEWVAIIWYDGSNKDYADSVKGRFTISRDNSKNTLYLQMNSLRAEDTAVYYCARDSGFYDSYYFDYWGQGTLVTVSS
VL: EIVLTQSPATLSLSPGERATLSCRASQSVSSSYLAWYQQKPGQAPRLLIYDASNRATGIPARFSGSGSGTDFTLTISSLEPEDFATYYCQQYNSYPYTFGQGTKLEIK
notes: the sister clones carry the VL of P1-061015
B6: P1-077883 (P1-068748 H31S D57K) (antibody, V domains shown)
VH: QVQLVESGGGVVQPGRSLRLSCAASGFTFSSHAMHWVRQAPGKGLEWVAIIWYDGSNKDYADSVKGRFTISRDNSKNTLYLQMNSLRAEDTAVYYCARDSGFYDSYYFDYWGQGTLVTVSS
VL: EIVLTQSPATLSLSPGERATLSCRASQSVSSSYLAWYQQKPGQAPRLLIYDASNRATGIPARFSGSGSGTDFTLTISSLEPEDFATYYCQQYNSYPYTFGQGTKLEIK
B7: P1-070922 (P1-068767_E30D_E55A) (antibody, human IgG1, kappa, V domains shown)
VH: EVQLVESGGGLVQPGKSLRLSCAASGFTLDDYAMHWVRQAPGKGLEWVSGIDWNSANIGYADSVKGRFTISRDNAKNSLYLQMNSLRTEDTALYYCAKVPGYSGGWIDAEDDWGQGTMVTVSS
VL: not shown
notes: also called P1-070922-3
B8: P1-061015 (antibody, human IgG1, kappa, V domains shown)
VH: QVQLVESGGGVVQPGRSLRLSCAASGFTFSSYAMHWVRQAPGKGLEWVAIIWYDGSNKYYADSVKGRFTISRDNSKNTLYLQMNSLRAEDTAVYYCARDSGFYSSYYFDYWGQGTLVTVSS
VL: EIVLTQSPATLSLSPGERATLSCRASQSVSSSYLAWYQQKPGQAPRLLIYDASNRATGIPARFSGSGSGTDFTLTISSLEPEDFATYYCQQYNSYPYTFGQGTKLEIKR
notes: also called P1-061015.IgG1.3
B9: P1-068744 (antibody, human IgG1, kappa, V domains shown)
VH: QVQLVESGGGVVQPGRSLRLSCAASGFTFSEYAMHWVRQAPGKGLEWVAHIWYDGSNKYEADSVKGRFTISRDNSKNTLYLQMNSLRAEDTAVYYCARDSGFYESYYFDEWGQGTLVTVSS
VL: EIVLTQSPATLSLSPGERATLSCRASQSVSSSYLAWYQQKPGQAPRLLIYDASNRATGIPARFSGSGSGTDFTLTISSLEPEDFATYYCQQYNSYPYTFGQGTKLEIKR
notes: also called P1-068744-7
B10: P1-068748 (antibody, human IgG1, kappa, V domains shown)
VH: QVQLVESGGGVVQPGRSLRLSCAASGFTFSHHAMHWVRQAPGKGLEWVAIIWYDGSNDDYADSVKGRFTISRDNSKNTLYLQMNSLRAEDTAVYYCARDSGFYDSYYFDYWGQGTLVTVSS
VL: EIVLTQSPATLSLSPGERATLSCRASQSVSSSYLAWYQQKPGQAPRLLIYDASNRATGIPARFSGSGSGTDFTLTISSLEPEDFATYYCQQYNSYPYTFGQGTKLEIKR
notes: also called P1-068748-6
B11: P1-061520 (41F11 VK_A64G) (antibody, V domains shown)
VH: QVQLVESGGGLVKPGGSLRLSCAASGFTFSDYYMSWIRQAPGKGLEWVSYISNSGSPIYYADSVKGRFTISRDNAKNSLYLQMNSLRAEDTAVYYCARDLPGWYFDLWGRGTLVTVSS
VL: EIVLTQSPATLSLSPGERATLSCRASQSVSSYLAWYQQKPGQAPRLLIYDASNRATGIPARFSGSGSGTDFTLTISSLEPEDFAVYYCQQRNNWPRTFGQGTKVEIK
notes: also called P1-061520-21; VISTA.4.A64G
B12: P1-070976 (41F11_VH_T28P_Y50W_S55E_D95H_L96E_P97E_Y100E; Vk_A64G) (antibody, V domains shown)
VH: QVQLVESGGGLVKPGGSLRLSCAASGFPFSDYYMSWIRQAPGKGLEWVSWISNSGEPIYYADSVKGRFTISRDNAKNSLYLQMNSLRAEDTAVYYCARHEEGWEFDLWGRGTLVTVSS
VL: EIVLTQSPATLSLSPGERATLSCRASQSVSSYLAWYQQKPGQAPRLLIYDASNRATGIPARFSGSGSGTDFTLTISSLEPEDFAVYYCQQRNNWPRTFGQGTKVEIK
notes: They look like Kabat positions on the mature VH, but no numbering scheme is stated; also called P1-070976-11

Experiments:
[1] = molecular target: T1, monovalent hVISTA-ECD (amino acids 32-193 of SEQ ID NO: 1 with a 7xHis tail) (human, UniProt Q9H7M9 33-193); experiment: SPR 37C, Ab on Protein A, pH 6.0
T1 construct: analyte of the SPR assays; also called huVISTA-His; human VISTA-ECD

[2] = molecular target: T2, hVISTA-ECD 6-His tag (human, UniProt Q9H7M9 33-193); experiment: SPR, Ab on Protein A, hVISTA analyte, pH 6.9
T2 construct: also called monovalent hVISTA-ECD; human VISTA
Method: (§1) Further binding kinetic experiments were performed at various pHs on VISTA antibodies described herein by SPR as generally described in Example 9 above. Antibodies were normalized to 50 nM concentration in PBST pH 7.4 and captured on a Protein A CM5 chip (ID 4931) by injecting for 45 seconds at a 5 µL/min flow rate. An 8-point human VISTA titration ([…]) was prepared in PBST at pH 7.4, 6.9, 6.45, and 6.0. Titrations were injected over the captured antibodies for 180 seconds at 30 µL/min. Sensorgrams were fit to a 1:1 binding model in T200 evaluation software and the kinetic constants were reported.
(§2) Each table reports the data at one of the four tested pHs (7.4, 6.9, 6.45, and 6.0, respectively). The 8-point hVISTA titration used in these assays was chosen to provide increased confidence in kinetic values reported at neutral pH conditions. A relatively stringent cutoff for non-binding was applied in this assay. Certain progeny of P1-061029 antibody (P1-068757, ‘759, ‘765, ‘771, and ‘775) show no binding to hVISTA at micromolar concentrations at pH 7.4, while ‘761 and ‘767 show no binding to hVISTA at 100 nM at pH 7.4 but do show binding to hVISTA at micromolar concentrations.

[3] = molecular target: T2, hVISTA-ECD 6-His tag; experiment: SPR, Ab on Protein A, hVISTA analyte, pH 6.45
[4] = molecular target: T2, hVISTA-ECD 6-His tag; experiment: SPR; kd at pH 6.45 over kd at pH 6.0 (head prints 7.4)
Method: as §1, §2

[5] = molecular target: T2, hVISTA-ECD 6-His tag; experiment: SPR; kd at pH 6.9 over kd at pH 6.0 (head prints 7.4)
Method: as §1, §2

[6] = molecular target: T2, hVISTA-ECD 6-His tag; experiment: SPR; KD at pH 6.45 over KD at pH 6.0 (head prints 7.4)
[7] = molecular target: T2, hVISTA-ECD 6-His tag; experiment: SPR, Ab on Protein A, hVISTA analyte, pH 6.0
[8] = molecular target: T2, hVISTA-ECD 6-His tag; experiment: SPR; KD at pH 6.9 over KD at pH 6.0 (head prints 7.4)
Method: as §1, §2

[9] = molecular target: T2, hVISTA-ECD 6-His tag; experiment: SPR 37 C, Ab on Protein A, pH 7.4
[10] = molecular target: T2, hVISTA-ECD 6-His tag; experiment: SPR 37 C, Ab on Protein A, pH 6.0

T2 sequence (Q9H7M9 other isoform, or with tags, fused parts or gaps limits assumed): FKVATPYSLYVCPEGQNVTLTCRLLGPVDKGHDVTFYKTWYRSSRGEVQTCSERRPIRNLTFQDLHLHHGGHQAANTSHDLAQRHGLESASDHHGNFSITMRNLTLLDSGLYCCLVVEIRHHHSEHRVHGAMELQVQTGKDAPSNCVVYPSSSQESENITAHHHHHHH
T1 sequence (Q9H7M9 other isoform, or with tags, fused parts or gaps limits assumed): as above

Binder	fold improvement of off-rate against the '748 antibody [1] [fold]	Kd [2] [nM]	koff [2] [s⁻¹]	kon [2] [M⁻¹ s⁻¹]	Kd [3] [nM]	koff [3] [s⁻¹]	kon [3] [M⁻¹ s⁻¹]	7.4 kd/ 6.0 kd [4]	7.4 kd/ 6.0 kd [5]	7.4 KD/ 6.0 KD [6]	Kd [7] [nM]	koff [7] [s⁻¹]	kon [7] [M⁻¹ s⁻¹]	7.4 KD/ 6.0 KD [8]	Kd [9] [nM]	koff [9] [s⁻¹]	kon [9] [M⁻¹ s⁻¹]	Kd [10] [nM]	koff [10] [s⁻¹]	kon [10] [M⁻¹ s⁻¹]
B1	≤ 2	–	–	–	–	–	–	–	–	–	–	–	–	–	–	–	–	–	–	–
B2	≤ 2	–	–	–	–	–	–	–	–	–	–	–	–	–	–	–	–	–	–	–
B3	≤ 2	–	–	–	–	–	–	–	–	–	–	–	–	–	–	–	–	–	–	–
B4	≤ 2	–	–	–	–	–	–	–	–	–	–	–	–	–	–	–	–	–	–	–
B5	≤ 2	–	–	–	–	–	–	–	–	–	–	–	–	–	–	–	–	–	–	–
B6	≤ 2	–	–	–	–	–	–	–	–	–	–	–	–	–	–	–	–	–	–	–
B7	–	790	0.014	18000	76	0.007	93000	1.7	3.4	4.4	17	0.004	230000	45.9	–	–	–	–	–	–
B8	–	3.19	0.00133	417000	1.83	0.00147	803000	1	0.9	2.9	0.622	0.00154	2.47e+06	5.1	6.4	0.0022	340000	1.9	0.0016	830000
B9	–	4800	0.034	7100	64	0.014	220000	3.2	7.9	12.6	5.1	0.0043	860000	958	1100	0.036	35000	20	0.0046	230000
B10	–	220	0.018	82000	18	0.012	680000	3.4	4.8	4.1	4.3	0.0036	840000	50	–	–	–	–	–	–
B11	–	2.15	0.00139	646000	5.69	0.00554	975000	0.2	0	0.3	16.8	0.0323	1.93e+06	0.1	–	–	–	–	–	–
B12	–	970	0.01	11000	44	0.0039	90000	1.7	4.4	4.4	9.9	0.0023	240000	98.2	–	–	–	–	–	–
